The results in this text go back to publication PMC6668440, “A one-gate elevator mechanism for the human neutral amino acid transporter ASCT2” (Nature Communications, 2019).

This series concerns the molecule itself. The series can be described thus: cryo-EM structure; single particle cryo-EM of the purified transporter in mixed DDM + CHS micelles (20 mM Tris-HCl pH 7.4, 300 mM NaCl); ASCT2_(C467R) with 1 mM DL-TBOA and without inhibitor, ASCT2wt without substrate; C3 symmetry imposed, classifications without symmetry also done.

B1: human Alanine Serine Cysteine Transporter 2 with the C467R mutation (ASCT2_(C467R)) (natural protein)
chain: MVADPPRDSKGLAAAEPTANGGLALASIEDQGAAAGGYCGSRDQVRRCLRANLLVLLTVVAVVAGVALGLGVSGAGGALALGPERLSAFVFPGELLLRLLRMIILPLVVCSLIGGAASLDPGALGRLGAWALLFFLVTTLLASALGVGLALALQPGAASAAINASVGAAGSAENAPSKEVLDSFLDLARNIFPSNLVSAAFRSYSTTYEERNITGTRVKVPVGQEVEGMNILGLVVFAIVFGVALRKLGPEGELLIRFFNSFNEATMVLVSWIMWYAPVGIMFLVAGKIVEMEDVGLLFARLGKYILCCLLGHAIHGLLVLPLIYFLFTRKNPYRFLWGIVTPLATAFGTSSSSATLPLMMKCVEENNGVAKHISRFILPIGATVNMDGAALFQCVAAVFIAQLSQQSLDFVKIITILVTATASSVGAAGIPAGGVLTLAIILEAVNLPVDHISLILAVDWLVDRSRTVLNVEGDALGAGLLQNYVDRTESRSTEPELIQVKSELPLDPLPVPTEEGNPLLKHYRGPAGDATVASEKESVM
notes: human ASCT2 (SLC1A5), codon optimised gene on the pPICZ-A plasmid, with the single point mutation C467R; residues 43-159 and 177-489 were modelled in the map; Homotrimer (172 kDa) in DDM + CHS micelles; the tag and the limits are not described here; also called SLC1A5 C467R; source: Pichia pastoris X-33, purified (DDM/CHS solubilisation, Ni2+-Sepharose, Superdex 200 SEC)
What is called stoichiometry N is the number of molecules, sites or subunits per partner or assembly. Consider B1, for which the “stoichiometry N” value came to 3.

B2: human Alanine Serine Cysteine Transporter 2, wild type (ASCT2wt) (natural protein)
chain: MVADPPRDSKGLAAAEPTANGGLALASIEDQGAAAGGYCGSRDQVRRCLRANLLVLLTVVAVVAGVALGLGVSGAGGALALGPERLSAFVFPGELLLRLLRMIILPLVVCSLIGGAASLDPGALGRLGAWALLFFLVTTLLASALGVGLALALQPGAASAAINASVGAAGSAENAPSKEVLDSFLDLARNIFPSNLVSAAFRSYSTTYEERNITGTRVKVPVGQEVEGMNILGLVVFAIVFGVALRKLGPEGELLIRFFNSFNEATMVLVSWIMWYAPVGIMFLVAGKIVEMEDVGLLFARLGKYILCCLLGHAIHGLLVLPLIYFLFTRKNPYRFLWGIVTPLATAFGTSSSSATLPLMMKCVEENNGVAKHISRFILPIGATVNMDGAALFQCVAAVFIAQLSQQSLDFVKIITILVTATASSVGAAGIPAGGVLTLAIILEAVNLPVDHISLILAVDWLVDRSCTVLNVEGDALGAGLLQNYVDRTESRSTEPELIQVKSELPLDPLPVPTEEGNPLLKHYRGPAGDATVASEKESVM
notes: human ASCT2 (SLC1A5), codon optimised gene on the pPICZ-A plasmid; Only a map (6.98 Å, C3 imposed) was deposited, no model; also called SLC1A5
Consider B2, for which the binding result is given as “binds”.
